Results reported in patent publication US20090196872A1 (KIRIN BEER, published 2009).

B1: human anti-M2 monoclonal antibody no. Z3G1 (recombinant IgG1 type Z3, CHO; ATCC PTA-5967) (antibody, V domains shown)
VH: QVQLVQSGAEVKKPGASVKVSCKASGYTFTSYGISWVRQAPGQGLEWMGWISAYNGNTNYAQKLQGRVTMTTDTSTSTAYMELRSLRSDDTAVYYCARAAAGGYFQHWGQGTLVTVSS
VL: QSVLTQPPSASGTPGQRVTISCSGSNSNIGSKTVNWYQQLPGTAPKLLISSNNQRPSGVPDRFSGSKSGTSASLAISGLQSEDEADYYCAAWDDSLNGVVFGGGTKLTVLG
B2: human anti-M2 monoclonal antibody C40G1 (antibody, V domains shown)
VH: QLQLQESGPGLVKPSETLSLTCTVSGGSISSSFYYCGWIRQPPGKGLEWIGSIYYRGSTYYNPSLKSRVTISVDTSKNQFSLKLSSVTAADTAVYYCARRVTMVRGVKGDYFDYWGQGTLVTVSS
VL: DIQMTQSPSSLSASVGDRVTITCRASQGISSWLAWYQQKPEKVPKSLIYAASSLQSGVPSRFSGSGSGTDFTLTISSLQPEDFATYYCQQYNYYPLTFGGGTKVEIKR
B3: human anti-M2 monoclonal antibody L66 (antibody, V domains shown)
VH: EVQLVESGGGVVRPGGSLRLSCAASGFTFDDYGMSWVRQAPGKGLEWVSGINWNGGSTGYADSVKGRFTISRDNAKNSLYLQMNSLRAEDTALYYCARDRVTMVRGVIMDYYGMDVWGQGTTVTVSS
VL: QTVVTQEPSLTVSPRGTVTLTCSSSTGAVTSGYYPGWFQLKPGQAPMSLIYSARKKHSWTPARFSGSLLGGKAALTLSGVQPEDEAEYYCLLYYGGAYVFGTGTKVTVLG
B4: human anti-M2 monoclonal antibody N547 (antibody, V domains shown)
VH: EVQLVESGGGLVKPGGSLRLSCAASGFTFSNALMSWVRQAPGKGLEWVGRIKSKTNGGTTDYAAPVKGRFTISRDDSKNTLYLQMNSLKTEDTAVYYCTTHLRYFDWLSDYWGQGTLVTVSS
VL: QSVLTQPPSMSAAPGQKVTISCSGSSSNIGNNYISWYQQLPGTAPKVLIYDNNKRPSGIPDRFSGSKSGTSATLGITGLQTGDEADYYCGSWDSSLSAGVFGTGTKVTVLG

Target: T1, M2 protein expressed on A/PR/8/34 infected MDCK cells (influenza A virus A/PR/8/34, UniProt P06821 1-97)
T1 construct: whole, on cells
T1 sequence (P06821 whole entry): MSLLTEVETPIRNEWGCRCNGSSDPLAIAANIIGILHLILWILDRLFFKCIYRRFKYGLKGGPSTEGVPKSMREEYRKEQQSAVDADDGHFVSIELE
Test: cell-based ELISA, half-saturating antibody concentration

Row | Binder | Kd [nM]
1 | B1 | 0.497
2 | B2 | 0.519
3 | B3 | 0.563
4 | B4 | 1.05
